Values of other authors as cited in paper PMC5401657.

Molecular target: integrin αvβ3 (Homo sapiens) (UniProt P06756)
Test: SPR

Sequence of UniProt P06756 (P06756 31-992, chain 1 of 2): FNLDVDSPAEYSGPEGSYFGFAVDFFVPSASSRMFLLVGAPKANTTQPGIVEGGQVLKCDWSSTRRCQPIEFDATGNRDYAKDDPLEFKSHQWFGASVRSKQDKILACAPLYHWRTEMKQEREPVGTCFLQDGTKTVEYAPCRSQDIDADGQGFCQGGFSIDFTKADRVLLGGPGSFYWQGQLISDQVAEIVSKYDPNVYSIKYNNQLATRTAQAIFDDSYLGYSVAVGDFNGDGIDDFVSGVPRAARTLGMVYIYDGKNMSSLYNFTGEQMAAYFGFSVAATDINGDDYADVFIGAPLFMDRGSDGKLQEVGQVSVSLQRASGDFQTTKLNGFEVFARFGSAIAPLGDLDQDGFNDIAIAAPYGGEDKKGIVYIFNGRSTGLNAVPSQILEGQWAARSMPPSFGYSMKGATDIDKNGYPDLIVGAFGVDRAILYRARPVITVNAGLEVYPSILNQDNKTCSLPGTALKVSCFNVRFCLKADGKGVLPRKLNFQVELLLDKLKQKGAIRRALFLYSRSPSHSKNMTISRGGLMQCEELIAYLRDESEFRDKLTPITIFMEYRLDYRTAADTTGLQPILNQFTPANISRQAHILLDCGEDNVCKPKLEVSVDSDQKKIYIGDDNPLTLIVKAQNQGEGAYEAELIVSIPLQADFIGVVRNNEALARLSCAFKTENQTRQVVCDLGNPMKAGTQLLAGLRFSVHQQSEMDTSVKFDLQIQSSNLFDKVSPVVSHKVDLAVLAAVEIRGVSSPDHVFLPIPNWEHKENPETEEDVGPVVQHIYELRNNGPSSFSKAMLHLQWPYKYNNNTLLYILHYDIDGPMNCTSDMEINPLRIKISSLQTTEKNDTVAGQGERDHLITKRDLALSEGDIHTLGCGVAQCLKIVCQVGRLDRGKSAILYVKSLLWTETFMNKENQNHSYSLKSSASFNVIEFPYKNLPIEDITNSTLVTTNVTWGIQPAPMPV
Sequence of UniProt P06756 (P05106 27-718, chain 2 of 2, further chain): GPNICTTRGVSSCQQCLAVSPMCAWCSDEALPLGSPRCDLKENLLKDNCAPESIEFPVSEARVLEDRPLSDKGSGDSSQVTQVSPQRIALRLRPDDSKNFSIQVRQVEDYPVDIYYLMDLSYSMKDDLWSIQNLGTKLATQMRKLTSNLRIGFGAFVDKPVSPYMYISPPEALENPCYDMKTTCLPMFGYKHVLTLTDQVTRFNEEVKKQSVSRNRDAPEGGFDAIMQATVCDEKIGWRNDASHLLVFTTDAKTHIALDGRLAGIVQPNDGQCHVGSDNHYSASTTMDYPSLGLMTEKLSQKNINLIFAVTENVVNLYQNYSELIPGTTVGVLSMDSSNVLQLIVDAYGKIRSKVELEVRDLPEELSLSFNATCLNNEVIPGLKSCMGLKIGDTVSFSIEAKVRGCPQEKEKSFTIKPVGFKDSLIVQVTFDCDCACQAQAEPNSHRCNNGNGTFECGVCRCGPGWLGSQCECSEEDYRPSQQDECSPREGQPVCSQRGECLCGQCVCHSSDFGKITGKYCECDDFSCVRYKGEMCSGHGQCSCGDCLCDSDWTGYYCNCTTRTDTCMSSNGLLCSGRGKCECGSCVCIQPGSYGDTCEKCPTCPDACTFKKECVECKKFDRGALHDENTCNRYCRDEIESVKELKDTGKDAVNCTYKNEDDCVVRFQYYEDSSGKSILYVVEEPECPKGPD

IGF1 (from UniProt P05019)
Kd: 500 nM
